The values that follow are results of earlier work, collected in PMC8073936.

For this series, the target named is TRF1 (Homo sapiens) (UniProt P54274).
Sequence of UniProt P54274 (P54274 2-439): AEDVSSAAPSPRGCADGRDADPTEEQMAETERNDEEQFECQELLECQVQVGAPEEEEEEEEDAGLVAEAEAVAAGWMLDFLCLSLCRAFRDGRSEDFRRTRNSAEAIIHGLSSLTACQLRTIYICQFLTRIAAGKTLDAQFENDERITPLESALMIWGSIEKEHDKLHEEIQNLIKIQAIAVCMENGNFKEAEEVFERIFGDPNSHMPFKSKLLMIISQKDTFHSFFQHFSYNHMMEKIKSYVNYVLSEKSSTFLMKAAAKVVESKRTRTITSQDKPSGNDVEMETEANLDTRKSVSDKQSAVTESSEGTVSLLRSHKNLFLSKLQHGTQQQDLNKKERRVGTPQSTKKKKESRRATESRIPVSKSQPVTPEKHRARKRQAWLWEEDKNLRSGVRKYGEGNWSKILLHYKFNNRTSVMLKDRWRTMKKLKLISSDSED

As a reminder, the Kd is the concentration at which binding is half-saturated. On to Ku70/80 (from UniProt P12956), for which the Kd was 400 pM.
